Laboratory results: publication doi:10.1101/2021.03.01.433494 (bioRxiv, 2021)

B1: Ab32 (human monoclonal anti-M protein IgG) (antibody, V domains shown)
VH: EVQLVESGGGLVRPGGSLRLSCVASGFMFNEYYMSWIRQAPGKGLEWISFISNAGTYTNYAESVKGRFTISRDNAKDSLYLEMNSLRGEDTAVYYCARQGFDTRGEDAFEIWGQGTMVTVSS
VL: EIVLTQSPATLSLSPGERATLSCRASQPLSGYLAWYQQKPGQAPRLLIYNASKRATGIPARFTGSGSGTDFTLTISSLESEDFAVYYCQQRSGWPSIFTFGPGTKVDIK
B2: Ab49 (human monoclonal anti-M protein IgG) (antibody, V domains shown)
VH: EVQLVESGGGLVQPGGSLRLSCAASGFTVSINYMSWVRQAPGKGLQWVSVIYSGGSTYYADSVKGRFTISRDNSKNTLYLQMNSLRAEDTAMYYCVRDSRFWGIFDYWGQGTLVTVSS
VL: EIVLTQSPATLSLSPGERATLSCRASQSVSSYLAWYQRKPGQAPRLLIYDASNRATGIPARFSGSGSGTDFTLTISSLEPEDFAVYYCQQRSNWPPTFGQGTKVEIK
B3: Ab49 single Fab (IgdE-cleaved Ab49) (Fab, V domains shown)
VH: EVQLVESGGGLVQPGGSLRLSCAASGFTVSINYMSWVRQAPGKGLQWVSVIYSGGSTYYADSVKGRFTISRDNSKNTLYLQMNSLRAEDTAMYYCVRDSRFWGIFDYWGQGTLVTVSS
VL: EIVLTQSPATLSLSPGERATLSCRASQSVSSYLAWYQRKPGQAPRLLIYDASNRATGIPARFSGSGSGTDFTLTISSLEPEDFAVYYCQQRSNWPPTFGQGTKVEIK

Legend:
[1] = biological target: T1, M1 protein on the surface of Streptococcus pyogenes strain SF370 (Streptococcus pyogenes SF370 (emm1), UniProt Q99XV0, strain); assay: far-Western, overlay or dot blot
[2] = biological target: T1, M1 protein on the surface of …; assay: flow cytometry on cells

Binder	binding result [1]	binding result [2]
B1	binds	–
B2	–	binds
B3	–	binds
